Measured values published in the supplement of paper PMC9170038.

Assays:
MS2 coat protein [1] = test: apparent KD of MS2 coat protein, switch ON state; designed switch direction (-1 OFF switch, 1 ON switch): -1; higher = weaker reporter binding; settings: FMN input: 0 or 200 uM; Eterna round: R93 (includes R88 designs)
Outline: (§1)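 The buffer was 100 mM Tris-HCl pH 7.5 with 80 mM KCl and 4 mM MgCl2, used without or with constant ligand. In it, RNA switches transcribed on-chip from Illumina sequencing clusters were titrated with SNAP-549-labelled MS2 coat protein in twofold steps from 0.7 or 1.5 nM to 3 µM. Apparent KD for each design is the median of its normalised cluster binding-curve fits.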

MS2 coat protein [2] = test: apparent KD of MS2 coat protein, switch OFF state (with FMN for OFF switches, without FMN for ON switches); designed switch direction (-1 OFF switch, 1 ON switch): -1; higher = weaker reporter binding; settings: FMN input: 0 or 200 uM; Eterna round: R93 (includes R88 designs)
Outline: as §1

Sequence | apparent KD of MS2 coat protein (MS2 coat protein [1]) [nM] | apparent KD of MS2 coat protein (MS2 coat protein [2]) [nM]
AAAAAUGGAGGAUAUACGAACAUGUCAAAAGACGUGAAGGGACAUGAGGAUCACCCAUGUAGAAGGCUAAAAAA [JL Stem Breaker 3] | 87.1 | 40.3
AAAACGGCAGGAUAUACAGAAGAGAUCACGAAAAAAAAAAAACAUGAGGAUCACCCAUGUAGAAGGGCCAAAAA [Ex2 Malc#4] | 117 | 66.3
AAAACGGUAGGAUAUACAAUUGAGAACUAGAUCGAAAAAAAACAUGAGGAUCACCCAUGUAGAAGGGCCAAAAA [Ex2 Malc#10] | 38.2 | 23.6
AAAAGGAUAGGAUAUACAUGAGGAUCACCCAUGUGAAAAAAUAAAAAAAAAAAAAAAAGUAGAAGGGUCAAAAA [LROPPY Exclusion 3 - v05_deltaG=3.6] | 40.2 | 53.7
AAAAGGUGAGGAUAUUCGAAAAUAAAAUAAAAUAAAAUAAAGAAGAAGGCACAUGAGGAUCACCCAUGUAAUAA [LROPPY Exclusion 4 - v02_deltaG=2.94 break up the As] | 25.9 | 24.9
AAAAUACGAGGAUAUACAUGAGGAUCACCCAUGUCAAAAAAUGACUACACAAAAGAAAGUAGAAGGCGUAAAAA [Ex 3 May 16] | 25.3 | 30.4
AAAAUGUGAGGAUAUCCGAAGGCGUCUGAUAGACGAGGCUAGGAGAAGGCACAUGAGGAUCACCCAUGUAAAAA [Banishment 11 - Jieux - Exclusion 4] | 78.8 | 137
AAAAUGUUAGGAUAUGUGAAGGCGUCUGAUAGACGAGGCCUGCAGAAGGGACAUGAGGAUCACCCAUGUAAAAA [Mod 1 of Nando's Round 1 Power Srip] | 53.9 | 24.7
AAACAACAUGAGGAUCACCCAUGUUAGGAUAUGAACGAAAAUAAAUAAAAAUAAAAGUUCAGAAGGGACAAAAA [66%, Wbt, 20] | 23 | 28.2
AAAGAUACAGGAUAUACAUGAGGAUCACCCAUGUGGAAUCUAAAAUGGGAAAAAGAAAGUAGAAGGGUAUAAAA [Ex 3 May 39] | 34 | 63.5
AAAGGACGAGGAUAUACAUGAGGAUCACCCAUGUAAAAAACGUAAUAAAAGAACUUAUGUAGAAGGCGUCCAAA [69%, Moding Meechl, 7] | 60.9 | 221
AAAGGUACAGGAUAUGCGUGGAAAAAGUGUAUUCAAAAAAAACAUGAGGAUCACCCAUGUAGAAGGGUACCAAA [MS2 Riboswitches On Chip Exclusion 2 wbt1] | 69.7 | 253
AAAGUACAUGAGGAUCACCCAUGUCAGGAUAUCGUGGCGGGAAAAACCGGGAAACGCACGAGAAGGGACAAAAA [EX1 Malc#18 Mod 13 - Jieux - Exclusion 1] | 36.2 | 42
AAAUAGACAGGAUAUGCAUGAAAAUUAAAAAAAAAAAAAAAACAUGAGGAUCACCCAUGUAGAAGGGUCAAAAA [Exclusion 2 - Omei 1] | 66.6 | 75.8
AAAUAGCAAGGAUAUACAUGAGGAUCACCCAUGUGAACCAGGUAUGGAAUAGAAUAGAGUAGAAGGUGCAAAUA [Mod 3 of Ex 3 Tesla 8 - Jieux - Exclusion 3] | 30.2 | 37.8
AAAUAGUUAGGAUAUACAUGAGGAUCACCCAUGUGGACUUAUGGAGAAUAGUUUAAUGGUAGAAGGGACUAAAA [EX2 Malc#25] | 52.8 | 36.5
AACAAACAUGAGGAUCACCCAUGUGAGGAUAUCGAAACAACAAACAACAAACAACAAACGAGAAGGCGCAACAA [e1-2] | 18.8 | 17.3
AACAAGACAGGAUAUACAUGAGGAUCACCCAUGUCACAAUAAAGCAGCGCAACACAAAGUAGAAGGGUCAUGGA [Ruby 10] | 73.8 | 59.2
